Measured values taken from patent US20200207830A1, “TREM2 MUTANTS RESISTANT TO SHEDDASE CLEAVAGE” (NOVARTIS AG, priority 2017, published 2020).
No end group written: not given here.

Tests used:
ADAM17 = ADAM17 (Homo sapiens, UniProt P78536); assay: In vitro cleavage of TREM2 stalk region peptides by ADAM17 (HPLC); type: biochemical; details: neutral buffer, up to 48 hours, HPLC of parent peptide
From the text: FIGS. 5A-5E show ADAM17 cleaves TREM2 stalk region peptides in vitro at H157-S158. […] All peptides were obtained with an N-terminal 7-methoxycoumarin (Mca) fluorescent tag […]. Underlined amino acids indicates main sheddase cleavage site. AA112-171: SEQ ID NO: 24; Peptide 1: SEQ ID NO: 25; Peptide 2: SEQ ID NO: 26; Peptide 3: SEQ ID NO: 27; Peptide la: SEQ ID NO: 28; Peptide 2a: SEQ ID NO: 29; Peptide 4: SEQ ID NO: 30; Peptide 5: SEQ ID NO: 31; Peptide 6: SEQ ID NO: 32. […] FIG. 5C discloses SEQ ID NOS 83, 51 and 84, respectively, in order of appearance.
(§1) In order to identify the cleavage site of ADAM10/ADAM17 within the stalk region of TREM2, in vitro cleavage patterns of stalk region-derived peptides were investigated and confirmed the cleavage site by determination of the C-terminus of shed soluble TREM2 from cell culture supernatants. A series of peptides covering the stalk region were designed for in vitro investigation of ADAM10/ADAM17 cleavage (FIG. 5A). All peptides were obtained with an N-terminal 7-methoxycoumarin (Mca) fluorescent tag. Peptides 1-3, 1a and 2a were incubated with ADAM17 in neutral buffer for up to 48 hours, and reaction was followed by HPLC analysis of aliquots withdrawn at different time points.
(§2) HPLC-MS analysis of the reaction mixture of peptide3/ADAM17 identified one major product, SISRSLLEGEIPFP-NH2(SEQ ID NO: 51), together with 2 minor cleavage products (FIGS. 5B-5C). […] At these time points there was essentially no substrate left. Therefore, it can be concluded that the minor cleavage products originate from secondary ADAM17 cleavage of the main product.

HEK293-FT cells = assay: FACS analysis of cell surface expression of TREM2 WT and mutants in HEK293-FT cells with or without PMA; type: cell-based; details: co-transfected with hDAP12, 48 h, 30 min 50 ng/ml PMA, ratio of 1 = complete inhibition of shedding, FIG. 4B
From the text: FIGS. 4A-4D show the amino acid stretch in the membrane proximal part of the TREM2 stalk region are important for shedding. […] Amino acid numbering according to iProt Q9NZC2. TM: transmembrane region. Gaps indicate deleted amino acids within the respective mutant. Exchanged amino acids in bold. Underlined amino acids indicates main sheddase cleavage site for generation of the C-terminus of TREM2 ectodomain. […] FIG. 4B is a bar graph showing FACS analysis of TREM2 WT and mutants transiently expressed in HEK293-FT cells. Cells were treated 48 hours after transfection with 50 ng/ml PMA or 0.05% DMSO. Cells were detached, labelled with AF1828 antiserum and analyzed by flow cytometry. Data are plotted as the ratio of untreated over PMA treatment for each mutant as mean±S.E. (n=3). Statistical differences to WT were calculated by Anova with Dunnett's multiple comparison test. *P<0.01. TREM2-double mutant was stably expressed in BWZ-lacZ-mDAP12 cells. Cells were seeded on an activating monoclonal antibody or isotype control and reporter gene activity assessed after 16 h. Data are plotted as the ratio of RGA for activating/control Ab as mean±S.E. (n=3). FIG. 4D is a bar graph showing replacement of the three amino acids at the sheddase cleavage site strongly increases TREM2 cell surface expression. FACS analysis of TREM2 WT and mutants transiently expressed in HEK293-FT cells. Cells were treated 48 h after transfection with 50 ng/ml PMA or 0.05% DMSO. Cells were detached, labelled with AF1828 antiserum and analyzed by flow cytometry. Data are plotted as the ratio of untreated over PMA treatment for each mutant as mean±S.E. (n=3). Statistical differences were calculated by Anova with Dunnett's multiple comparison test. *P<0.01.
Human TREM2 mutants were generated using the QuikChange Site-directed Mutagenesis Kit (Stratagene) and confirmed by sequence analysis. Transfections of complementary DNA (cDNA) constructs were carried out in a 1:1 ratio of hDAP12 and TREM2 in HEK-FT cells using Lipofectamine LTX reagent (Thermofischer) according to the manufacturer's recommendations. 48 h after transfection cells were treated for 30 min with 50 ng/ml PMA or 0.05% DMSO and detached with a cell detachment solution Accutase (Sigma) and stained with goat anti human TREM2 antibody AF1828 (R&D Systems) or isotype control followed by incubation with the secondary Alexa Fluor 488 conjugated antibody (Molecular Probes). Acquisition was performed using a BD FACSCanto II (BD biosciences).
Wild-type (WT) TREM2 or TREM2 mutants were transfected together with hDAP12 into HEK-FT cells. 48 h later cells were treated for 30 min with PMA to activate ADAMs at cell surface (see Sommer, Nature Communications 7, 11523, 2016). TREM2 cell surface expression was assessed by FACS, and results are presented as expression ratio of untreated over PMA treatment (FIG. 4B). The evaluation of each construct in the presence and absence of PMA treatment overcomes the possibility that some constructs might display different binding properties for the antiserum and allows direct comparison of changes in TREM2 cell surface expression after activation of sheddases. A ratio of 1 indicates complete inhibition of shedding. […] Next four shorter deletion mutants were generated encompassing this area, each 6 amino acids long (TRUNC1, T2del3-8, T2del6-11 and T2del11-16).

ADAM10 = biological target: T1, ADAM10 (Homo sapiens, UniProt O14672); assay: In vitro cleavage of TREM2 stalk region peptides by ADAM10; type: biochemical; details: data not shown
T1 sequence (O14672 214-748): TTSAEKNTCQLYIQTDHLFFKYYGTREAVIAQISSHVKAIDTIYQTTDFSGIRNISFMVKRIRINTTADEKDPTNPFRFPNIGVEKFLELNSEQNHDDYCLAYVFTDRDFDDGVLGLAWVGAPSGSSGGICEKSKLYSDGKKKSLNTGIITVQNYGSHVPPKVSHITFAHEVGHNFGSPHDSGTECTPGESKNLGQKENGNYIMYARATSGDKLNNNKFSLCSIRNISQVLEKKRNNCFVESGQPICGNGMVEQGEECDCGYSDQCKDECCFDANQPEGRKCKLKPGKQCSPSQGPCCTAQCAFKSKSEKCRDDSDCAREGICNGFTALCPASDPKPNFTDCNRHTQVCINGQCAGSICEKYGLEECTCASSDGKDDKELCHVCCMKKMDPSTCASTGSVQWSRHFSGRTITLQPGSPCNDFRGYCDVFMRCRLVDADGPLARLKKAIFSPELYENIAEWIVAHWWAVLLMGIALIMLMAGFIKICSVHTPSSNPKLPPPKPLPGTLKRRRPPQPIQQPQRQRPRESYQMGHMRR
From the text: as §1, §2
Recent literature gave insight into ADAM10 and ADAM17 preferences for the cleavage of peptides and proteins (Caescu et al., Biochem J 424, 79-88, 2009; Tucher et al., J Proteome Res 13, 2205-2214, 2014). […] After searching for the least preferred amino acids in substrates of ADAM10 and 17, isoleucine was identified as never occurring in P1 of ADAM substrates, and a very low preference for aspartate or proline in P1′ and in P2′. […] In these peptides the H-SI cleavage site was replaced with IPP, IPD, and IDP, respectively.

Chain of ADAM17 (P78536 215-824): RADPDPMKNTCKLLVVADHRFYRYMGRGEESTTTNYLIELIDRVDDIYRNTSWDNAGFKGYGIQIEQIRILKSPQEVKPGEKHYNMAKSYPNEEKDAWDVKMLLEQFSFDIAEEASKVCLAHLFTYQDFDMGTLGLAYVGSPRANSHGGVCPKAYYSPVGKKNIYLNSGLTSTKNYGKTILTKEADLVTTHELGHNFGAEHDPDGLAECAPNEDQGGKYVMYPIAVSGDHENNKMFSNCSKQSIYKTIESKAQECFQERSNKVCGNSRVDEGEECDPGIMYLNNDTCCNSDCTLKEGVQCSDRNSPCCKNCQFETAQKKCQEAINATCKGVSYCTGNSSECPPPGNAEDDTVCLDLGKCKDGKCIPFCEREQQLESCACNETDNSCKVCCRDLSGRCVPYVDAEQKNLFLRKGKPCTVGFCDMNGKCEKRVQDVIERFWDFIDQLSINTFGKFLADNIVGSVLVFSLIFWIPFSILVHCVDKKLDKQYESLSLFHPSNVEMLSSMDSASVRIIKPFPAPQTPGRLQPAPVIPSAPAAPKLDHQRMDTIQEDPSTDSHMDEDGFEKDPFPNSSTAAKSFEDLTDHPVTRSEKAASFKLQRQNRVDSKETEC

For “1a: TREM2 stalk region derived synthetic peptide with 7-methoxycoumarin (Mca) tag; SEQ ID NO: 28 (VLVEVLADPLDHRD; also: 7-methoxycoumarin (Mca) tag, position not given here) [Peptide 1a]”, the “Cleavage by ADAM17” value (ADAM17) was “only very little or no reduction of the parent peptide”.

In the case of “T2del3-8: human TREM2 6 amino acid deletion mutant of the stalk region; SEQ ID NO: 15 (LWFPGESESFEDAHVEHSISRSLLEGTSILLLLAC)”, the “PMA induced TREM2 shedding (TREM2 cell surface expression ratio of untreated over PMA treatment)” value (HEK293-FT cells) is reported as “no or very little effect on shedding”.

With “TRUNC1: human TREM2 6 amino acid deletion mutant of the stalk region; SEQ ID NO: 14 (LWFPGESESFEDAHVEHSISRSLLEGEIILLLLAC)” the “PMA induced TREM2 shedding (TREM2 cell surface expression ratio of untreated over PMA treatment)” value (HEK293-FT cells) was “no or very little effect on shedding”.

With “T2del6-11: human TREM2 6 amino acid deletion mutant of the stalk region; SEQ ID NO: 16 (LWFPGESESFEDAHVEHSISRSLFPPTSILLLLAC)” the “PMA induced TREM2 shedding (TREM2 cell surface expression ratio of untreated over PMA treatment)” value (HEK293-FT cells) was “no or very little effect on shedding”.

For “Peptide 1: TREM2 stalk region derived synthetic peptide with 7-methoxycoumarin (Mca) tag; SEQ ID NO: 25 (SLHGSEADTLRKVLVEVLAD; also: 7-methoxycoumarin (Mca) tag, position not given here)”, the “Cleavage by ADAM17” value (ADAM17) was “only very little or no reduction of the parent peptide”.

“Peptide 3: TREM2 stalk region derived synthetic peptide with 7-methoxycoumarin (Mca) tag; SEQ ID NO: 27 (DAHVEHSISRSLLEGEIPFP; also: 7-methoxycoumarin (Mca) tag, position not given here)” was tested, and the “Cleavage by ADAM10” value (ADAM10) was “very similar cleavage pattern” and the “Cleavage by ADAM17” value (ADAM17) was “Significant cleavage”.

“Peptide 2a: TREM2 stalk region derived synthetic peptide with 7-methoxycoumarin (Mca) tag; SEQ ID NO: 29 (ESESFEDAHVEH; also: 7-methoxycoumarin (Mca) tag, position not given here)” was tested, and the “Cleavage by ADAM17” value (ADAM17) was “only very little or no reduction of the parent peptide”.

In the case of “Peptide 2: TREM2 stalk region derived synthetic peptide with 7-methoxycoumarin (Mca) tag; SEQ ID NO: 26 (PLDHRDAGDLWFPGESESFE; also: 7-methoxycoumarin (Mca) tag, position not given here)”, the “Cleavage by ADAM17” value (ADAM17) is reported as “only very little or no reduction of the parent peptide”.

B1: TRUNCIII-159-174: human TREM2 mutant, deletion of the 16 amino acids 159-174 proximal to the transmembrane domain; SEQ ID NO: 44 (protein)
chain: MEPLRLLILLFVTELSGAHNTTVFQGVAGQSLQVSCPYDSMKHWGRRKAWCRQLGEKGPCQRVVSTHNLWLLSFLRRWNGSTAITDDTLGGTLTITLRNLQPHDAGLYQCQSLHGSEADTLRKVLVEVLADPLDHRDAGDLWFPGESESFEDAHVEHSILLLLACIFLIKILAASALWAAAWHGQKPGTHPPSELDCGHDPGYQLQTLPGLRDT
In the case of B1, the “PMA induced TREM2 shedding (TREM2 cell surface expression ratio of untreated over PMA treatment)” value (HEK293-FT cells) is reported as “maximally reduces TREM2 shedding”.

B2: T2del11-16: human TREM2 6 amino acid deletion mutant of the stalk region; SEQ ID NO: 45 (protein)
chain: MEPLRLLILLFVTELSGAHNTTVFQGVAGQSLQVSCPYDSMKHWGRRKAWCRQLGEKGPCQRVVSTHNLWLLSFLRRWNGSTAITDDTLGGTLTITLRNLQPHDAGLYQCQSLHGSEADTLRKVLVEVLADPLDHRDAGDLWFPGESESFEDAHVEHSEGEIPFPPTSILLLLACIFLIKILAASALWAAAWHGQKPGTHPPSELDCGHDPGYQLQTLPGLRDT
In the case of B2, the “PMA induced TREM2 shedding (TREM2 cell surface expression ratio of untreated over PMA treatment)” value (HEK293-FT cells) is reported as “reduced PMA induced shedding”.

B3: T2-YGG: human TREM2 mutant, amino acids 156-164 replaced with larger hydrophobic residues; SEQ ID NO: 46 (protein)
chain: MEPLRLLILLFVTELSGAHNTTVFQGVAGQSLQVSCPYDSMKHWGRRKAWCRQLGEKGPCQRVVSTHNLWLLSFLRRWNGSTAITDDTLGGTLTITLRNLQPHDAGLYQCQSLHGSEADTLRKVLVEVLADPLDHRDAGDLWFPGESESFEDAHVYGGWGGWGPEGEIPFPPTSILLLLACIFLIKILAASALWAAAWHGQKPGTHPPSELDCGHDPGYQLQTLPGLRDT
For B3, the “PMA induced TREM2 shedding (TREM2 cell surface expression ratio of untreated over PMA treatment)” value (HEK293-FT cells) was “trend for reduction of TREM2 shedding”.

B4: T2-WFR: human TREM2 mutant, amino acids 169-172 replaced with larger hydrophobic residues; SEQ ID NO: 47 (protein)
chain: MEPLRLLILLFVTELSGAHNTTVFQGVAGQSLQVSCPYDSMKHWGRRKAWCRQLGEKGPCQRVVSTHNLWLLSFLRRWNGSTAITDDTLGGTLTITLRNLQPHDAGLYQCQSLHGSEADTLRKVLVEVLADPLDHRDAGDLWFPGESESFEDAHVEHSISRSLLEGEIWFRWTSILLLLACIFLIKILAASALWAAAWHGQKPGTHPPSELDCGHDPGYQLQTLPGLRDT
For B4, the “PMA induced TREM2 shedding (TREM2 cell surface expression ratio of untreated over PMA treatment)” value (HEK293-FT cells) was “more efficacious”.
